In USRE43371 (dated 2012):
Square brackets hold non-standard residues; d marks the D form. MeBmt = C/C=C/C[C@@H](C)[C@@H](O)[C@H](NC)C(=O)O; NMeI = CC[C@H](C)[C@H](NC)C(=O)O; NMeL = CN[C@@H](CC(C)C)C(=O)O; NMeV = CN[C@H](C(=O)O)C(C)C; Abu = CC[C@H](N)C(=O)O; Sar = CNCC(=O)O

Columns and labels:
[1] = biological target: T1, human recombinant cyclophilin A (Sigma) (human, UniProt P62937 1-165); assay: chymotrypsin-coupled spectrophotometric PPIase assay, tight binding inhibitor fit
T1 construct: Bought protein

cyclophilin (Sigma) = assay: cell-based or functional assay
Sequence of cyclophilin (Sigma) (P62937 whole entry): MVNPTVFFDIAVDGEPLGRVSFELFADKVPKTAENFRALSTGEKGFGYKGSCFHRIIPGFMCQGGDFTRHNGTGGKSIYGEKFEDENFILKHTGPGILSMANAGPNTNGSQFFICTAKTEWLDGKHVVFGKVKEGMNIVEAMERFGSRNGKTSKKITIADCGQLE

T1 sequence (P62937 whole entry): as above

Binder: cyclo([MeBmt][Abu][Sar][NMeI]V[NMeL]A[dA][NMeL][NMeL][NMeV]) (also called [Melle]^4-CsA; NIM811) [[MeIle]^4-CsA]
- Ki [1]: 2.11 nM
- PPIase (IC50 of inhibition of cyclophilin PPIase activity, relative to cyclosporin A = 1.0) (cyclophilin (Sigma)): 0.5 relative to CsA
